In the DeepSol protein solubility set:

test: soluble on expression in E. coli; label from the status in PepcDB or PDB records

Sequence | soluble on expression in E. coli
MGSDKIHHHHHHMSVVDPSLIERIIRDDVRAMGAYHVPDSHGLVKLDAMENPYRLPPALRSELAARLGEVALNRYPVPSSEALRAKLKEVMQVPAGMEVLLGNGSDEIISMLALAAARPGAKVMAPVPGFVMYAMSAQFAGLEFVGVPLRADFTLDRGAMLAAMAEHQPAIVYLAYPNNPTGNLFDAADMEAIVRAAQGSVCRSLVVVDEAYQPFAQESWMSRLTDFGNLLVMRTVSKLGLAGIRLGYVAGDPQWLEQLDKVRPPYNVNVLTEATALFALEHVAVLDEQAAQLRAERSRVAEGMAAHGGVTVFPSAANFLLARVPDAAQTFDRLLARKVLIKNVSKMHPLLANCLRVTVSTPEENAQFLEAFAASLQD | not soluble
MSSQNANLMREVRLFENHSEREQMENLSELFAVLNALEHLEKMFSRDHVSADEYKSECFKLIDQYKVTMRLVHGATSIEDFAKKYRLHCPAAIERIREGRPITVKDDQGNVLKHIASIVEQFITFLDALRLNTRAVDDLYPGLDDLYNAINTTSRVPIDAIVTTKVKKWHDRLSSMAASDEISDEDARQMIFDVESAYQAFNKALNELKH | soluble
GSMAEGSAVSDPQHAARLLRALSSFREESRFCDAHLVLDGEEIPVQKNILAAASPYIRTKLNYNPPKDDGSTYKIELEGISVMVMREILDYIFSGQIRLNEDTIQDVVQAADLLLLTDLKTLCCEFLEGCIAAENCIGIRDFALHYCLHHVHYLATEYLETHFRDVSSTEEFLELSPQKLKEVISLEKLNVGNERYVFEAVIRWIAHDTEIRKVHMKDVMSALWVSGLDSSYLREQMLNEPLVREIVKECSNIPLS | soluble
MVLVLDFGSQYTRLIARRLRELRAFSLILPGDAPLEEVLKHRPQALILSGGPRSVFDPDAPRPDPRLFSSGLPLLGICYGMQLLAQELGGRVERAGRAEYGKALLTRHEGPLFRGLEGEVQVWMSHQDAVTAPPPGWRVVAETEENPVAAIASPDGRAYGVQFHPEVAHTPKGMQILENFLELAGVKRDWTPEHVLEELLREVRERAGKDRVLLAVSGGVDSSTLALLLAKAGVDHLAVFVDHGLLRLGEREEVEGALRALGVNLLVVDAKERFLKALKGVEDPEEKRKIIGREFVAAFSQVARERGPFRFLAQGTLYPDVIESAGGHGAAKIKSHHNVGGLPEDLEFELLEPFRLLFKDEVRELALLLGLPDTLRLRHPFPGPGLAVRVLGEVTEERLEILRRADDIFTSLLRERGLYEKVAQALAVLTPVRSVGVAGDERKYGYVLALRAVTTEDFMTADWARLPLEFLDEAARRITRRVPEIGRVVYDLTSKPPATIEWE | soluble
MSFNDLYKASIYTMLGSIYAPSGGVIAAPTTSLPEVEGGKRNWDYRFAWVRDSSIIAEALLEAGSIVEARRIINFLLSLINFSSKPFYYPLYTIEGTIPPPERELRWLSGYKNSKPVRIGNGASSQIQLDIEGFFISALYKYVKMTNDQVFLKDVFSKVKYIGDWISENWSLKDSGIWEDRGSPQHYTHSKIMMWIALDKIGKLANLIGYADIWAKEREKLRNWIFTNCVKNNYFIRYCGNTDDVDSSLLSAPLYGFIEVSDSTFINTLTKIENDLKTDVFVKRYKTDFMGEAKHPFLLTTVWLARVYMRLGKIDSAIEILNKINKVSRELHLVGEHVDVEKGEFTGNFPQIFVHAQLVIAIKELNDTLTDKNIILEHHHHHH | not soluble
MKYIVAVNASPRSGWNTSQLVEAAAKGAKEAGATVDIIDLYKLEPFQGCISCFGCKLPRTFGRCVSKDGLSEVLDKIRKADGLILGSPNYLGNLTAGFRALYERLIFQSLTYNKERPNCNEHMIPVLLITTSNCDESIYDKIGYTSMLEGYKQMLERFVGPLEHHHHHH | not soluble
MSLSDNITIKDVRTYSVSAEGGGDYHLQEKGHWITDTYISNPMSMYPDYKKTRTSWGIGVLGSVVVEIELSNGIVGVATGLGGEPACWLIQHHFKRFLINQSPKNLNLIWDQMFKASMFYGRKGITICAISVVDLALWDSLGILRDEPVWQMIGGKVRDEIHFYCTGPLPVETRKMGFWGSKVPLPFGPGDGHEGLEKNYEYLKKHRDSVPEKFPLMVDCYMSLNVQYAIQLAKRCEDLNINWWEEVLHPDDIDGYKQIKLAHPDKKWTTGEHEYTRYGFRQLIETRSIDILQPDVMWVGGMTELLKISAMAAAYDLPVVPHGSGPYSSHFIFSQPHSPFCEYIAGSPDGKKVIKMFPYFDGEQLPENGKIKPSYDPGFGMKIANKDTLIEIKQNEGHHHHHH | soluble
MSLATNKKEIIRLLEEIATYMELKGENSFKISAFRKAAQAIELDSRSLSEIDDFTKISGIGKTTGEIIQRYLDSGECPELEELKKEVPAGLVPLLDVPGLGGKKLSRLYHELGVVDKDTLLQEAENGHIEALKGFGKKSAEKMAEAVREMGERPDRYPLNDVLPIIQKVEAYLAEIAPIETFAQAGSLRRLRETVKDLDYVIATEKPEDVQKALLAFPLITDVIGAGETKVSAVLEDNITISVDFRLVEKKAFATTLHHFTGSKDHNIKMRQLAKQSNEKISEYGVEQEDGTVRHFESEKTFFEHFKIPFLPPEVRRDGTEIERVTKDTKFLELSDIRGDLHMHTTWSDGAYAIPEMIEACIAKGYEYMVITDHGKFLRVANGLDEKRLLEQQAEIKKIAAKYPEIDVYSGVEMDILADGSLDFDDETLKQLDFVIASIHSSFQQSEEEIMKRLKTACENPYVRLIAHPTGRIVVKRKPYHVNMKELIQLAKSTGTALELNANPQRLDLNREHLEMAHAAGVPIAINTDAHDTKHLDFMSIGVRAATKAWLGKSAILNTKTAAEFKQFLQNKEGHHHHHH | soluble
MDPKRWWEKQEDIVISKDQIPRCDNKEVKMFGGMLLACDDVVTEDQLSWAPGFTDLPKKRGKKKDLNKFDAGILPGTSKQNNPMDPQVRLLLEASWEAMVDAGINPRGLRGSQIGDFDECATPGTSGTQKQNPVTEMGCIMSDTVPSMFSNRISYTFDLQGPSHSADKINFSTKKRMTKLRNRNSIV | not soluble
MSQDVNELSKQPTPDKAEDNAFFPSPYSLSQYTAPKTDFDGVEHKGAYKDGKWKVLMIAAEERYVLLENGKMFSTGNHPVEMLLPLHHLMEAGFDVDVATLSGYPVKLELWAMPTEDEAVISTYNKLKEKLKQPKKLADVIKNELGPDSDYLSVFIPGGHAAVVGISESEDVQQTLDWALDNDRFIVTLCHGPAALLSAGLNREKSPLEGYSVCVFPDSLDEGANIEIGYLPGRLKWLVADLLTKQGLKVVNDDMTGRTLKDRKLLTGDSPLASNELGKLAVNEMLNAIQNK | not soluble
MSLKAIVYKGPKMLEVVEIDKPIPKEGQVLVKVNRAGICGGDLGIYKGTHPRAKAPLVFGHEFSGVVEEDGKIFKKGTKVTVNPIYSCGDCVPCNSGDQHVCNTLRLVGIDRDGAMSEYVVVDENKLYELGDEMSDELGALIEPIAVAVHSVREPGYKPGDNAVVFGGGPIGLAIAFVLKKFGCTNLTIIEADDKRIAMGKDFGFDLRDAKGLDLEALKAEKTGGNGFDFVFDCAGVEPVAAQLIKASKVRGKIVIVAGYKTPTMFPVNEGMFKEVAFEFVRVYRDKDYEIAVELAKDEPMFEKLVTHVLPVEQAQEGFDLLLTPGTGAMKVLFKEGHHHHHH | not soluble
GADEEESTPCDNVETDQQTFACAAFNKQVAERELQSAYDELIERMRDQFGDEAGLMSRIEAAEKVWSQLRDADCKVETHAEQPGSNAYQIAWNSCIAQRSDERAEYLRSLGSQNSDEPAPED | soluble
MISNDAIRRNMAVFSMSVVSKLTDLTPRQIRYYETHELIKPERTEGQKRLFSLNDLERLLEIKSLLEKGFNIKGIKQIIYDSQEHLTTDEQEIRKKMIVDATQKPIGETLPINRGDLSRFIK | not soluble
MAVKMKYWTDEVGGERGSLKVELKPFGYRIIPLTQWKTLIAMDDVEVKKGEPEIIEVRPFTIPGGTMVGPLHIMRHALGTVLDVVECGIPTRVEDEKCIQRVVFLPVDDGVVREGDIVGVLKVFFIKTGLISRLFNLKPTKVELREEIVEANITWRDDGNIYREKISTKVFGYTRTHVGVWEPLVADEDVGVRAGDVLRVKIRNVELPPNTVVVPLSISRNPYGVVVDVVQLGKPRRVEEPKNIEQAVFLAVDDGEIKRGDLLGVINVYYVGLKKLEPLIATKEPQDFTLVYRKEEKIIRKKVHLPPFGYHRSPVARWEVVVAAEDKELTKNKPVRVKIKKIKIPANTIVYPMEIMRHSDGVLIDLVSDLPWRVEEGGKVDEAIFLPLFDGKIEKDDLLGVINLYQVELSPVEKIREMYNRFVKLSEEELMKYVEGLQ | soluble
METFDVVVIGAGAAGMMCAIEAGKRGRSVLVIDHAKAPGEKIRISGGGRCNFTNTGASIHNFLSANPKFALSALRRYRPRDFIALVERYGIAYHEKTLGQLFCDGSAKQIITMLLTEMKAAGVTLRLETSVESVAKAVSGFEVSLSSGKVACASLVVASGGKSIPKMGATGLGYDIAKQFGLNIIETRPALVPLTFEAGMLARLTPLSGVALDAVVGHGKTKFQEGMLFTHRGLSGPSILQISSYWREGDEIRVDMAPGVDALAALKTARTATPRQAVATVLATLLPKRVAQVIAEEEAPDKGNIADCSDKVLGRLASAVNAWTFKPVGSEGYRTAEVTLGGVDTEALDSRTLEAKAVPGLFFIGEVVDVTGWLGGYNFQWAWASGWSAGQSV | soluble
MKLACKIYNTLRWADIYFYQRDGKGLTQTELRQLALDLRKQDDEYKQLYSQVVQQIADRYYEARQRFFEGLARFPKEKKPHKYYSLVYPQYGWKILQVREIRKGSKKNKKRLITLKLSNLGTFKVIIHRDFPLDKVKRVVVKLTRSERIYITFVVEDYEFPKLPNTGKVVAIDVGIEKLIVTSDGEYFPNLRPYEKALWKVKHLHRELSRKKFLSNNWFKAKVKLARAYEHLKNLRTDLYMKLGKWFAEHYDVVVMEDIHVKQLIGKSLRSLRRRLSDVAFSELRDLIKYQLEKYGKKLILVNPAYTSKTCARCGYVKEDLSLSDRVFVCSNCGWIADRDYNASLNILRGSGSERPLVWSSALYQYQHFGTGMAELLEHHHHHH | soluble
MGSDKIHHHHHHMKWNWQQPDWPDFRWNSEALAVHEARFLQQSGIMIGVVKHLGDEDRTSVVLDVMTDEAMKTSQIEGELLNRDSVQSSLRREFGLETEARRIPPAERGIAEMMMALFRDFAAPLTEEVLGDWHRLVLSGRSDIDVVGRYREHEDAMQVVSGALHKPTVHFEAPPSREMAAEMARFLEWFAATGPGGATPLPGLTRSGLAHLYFVTIHPFEDGNGRIGRAIAEKALSQAIGQPSLIALSQTIQRRRSAYYDALEAANKSNEISDWLAYWAETVLDAQTHSLALIDFLLEKTRFHDRYRGKLNPRQEKVIARMFREGLDGFKGGLSAANYITIADTSRATATRDLQELVALGAMGQTGTLKATRYHLILDAVAGTNPPVNQA | not soluble
AAPYRCPLCRAGCPSLASMQAHMRGHS | soluble
MQITLARIDDRLIHGQVTTVWSKVANAQRIIICNDDVFNDEVRRTLLRQAAPPGMKVNVVSLEKAVAVYHNPQYQDETVFYLFTNPHDVLTMVRQGVQIATLNIGGMAWRPGKKQLTKAVSLDPQDIQAFRELDKLGVKLDLRVVASDPSVNILDKINETAFCE | soluble
MAHHHHHHMSATPKQPSTATTSISSDEKWDHSLETLIRKSTIGFASGILPGLLLARSPAARSAIIALCTGVGSGIAYGEARYLFDHDIMFDKRHLIQVQVVGGSSSQQSGAQKSME | not soluble
AKADSEQGNGEDKGTGTKGDGTGRGEGSGKGSGGVKGEHGEGAGSSKGNPLRANGSIPRPAYPTLSMENDEQGTVVLSVLVSPGGHVESVKIVKSSGFSRLDNAARKAAQNGHFQANAWTEFKVPVKFELN | soluble
